Laboratory results from the DeepSol protein solubility set.

test: soluble on expression in E. coli; label from the status in PepcDB or PDB records

Row | Sequence | soluble on expression in E. coli
1 | MTKFESSVKVIPYSQERVYEKLADLSNLEAIKDRLPEDKVKNMSFDTDTLSFNVDPVGQLTLRIIEREPSKCIKFETTNSPLPFNMWIQLVAVSEEECKLKVTIGLEINPFMKAMVQKPLNEGLEKMADMLSMIQYLEHHHHHH | soluble
2 | MSLGQGIPANPADGAGEWGDYRDCDSPWKAVEDAVRAAARQHPDAAYVYYTGDIIDHGVWETTVAGNIVSMTRTYQLFRDVFGSKPVYNVLGNHENNPTNVFAPSYITQSEFSAKWLYDFSADQWSTWLPTASQQTIRQGGFYTVLVRPGFRIIGMNNNDAYTFNWWILYDPAYLQAQLQWVHDTLLQAEAAGEKVHILAHIPIGAGTSYRTWARQYRRILDRFWDVITAHFHGHTHADEFNVFYSLANPQHAISAGFNGGGTVPFSNYNPNYVVYYVNPQTYDVTDFESWYFSLTEANQNPNREGHHHHHH | not soluble
3 | MSLRYKVGEVAARLGLTLRTLKYYEELGLVTPERTDSRYRMYSEADVQRLERIRRMRALGLSLGTIQAISTHPQESDPDGRQVLTQEALHTLESDLSSQLTVLSTRITAAEKELKDARALRRDVQRDLDYVQRRLAGAQVGELLREKDPAEGHHHHHH | not soluble
4 | MGSDKIHHHHHHYLNTLQRELENAGIESRLVRRFGYTQEAVDWADAVFSAGGDGTFLMASSRVRTKHKPVIGINTDPQGSEGYMCLMRKLPEENLAGALKKLFSGNFEWLNRQRIRITVTGDDGISDAIELHDQQLNRDPATTRWTDNPRSPAREIEECMSLSPPVKKRMISEAVEIPEVEKETVELPVLALNEVFIGESLSSRVSYYEIGINDAQMLKQKSSGITICTGTGSTSWNFNINKLTEQCVQDLMKIVAEHCNLPQIPHGDKNAVSEICTKFNQQLIFDPDRKQLAFSVRDPIFNATFPPTDPRGFADKICIKSRGYDAHLVIDGGISYRFNDGSEAVMEVRDEDTLRTVVFR | not soluble
5 | SPVYGVKAVPVERIRANSYNPNVTAPPEMRLLELSIWEDGYTMPCVCYYIEKEDVYELVDGYHRYKVMMTSPRIYKRENGLLPVTVIRKDLAERMASTIRHNRARGMHK | soluble
6 | MTIAYEHPNALTYLKSMKENIIRFANKKSLYTQHDEYIKNVFMDERVNLKYHCESIVSYIAEAFIHYSVWDHSHAYYPGRPSQQTARTDALEGTSRTLPTLAAWLHANGRSNTIITGLNQQPILVPEILRKAFLAGTNPQHKGYWGTLHHCDQRVCEGADLALALWMSKEWVWDCFSIDEKCQIITWFKQVNQCETVDNNWHLFVLTVQIVLKALTGEDEVQYDKYERVKEFYVGDGWFRDGAKGNYDYYNAWAFHYSLYWFTQIDVDFDSTFINNALSDFVGNYRYFFGKEGFPFFGRSACYRLAAAAPLLAAVDLQSDKITIGEAKRAFHCNLKYFISNGALKAGLPTQGLFDEDVRLVDNYSGPASSLWSLRALNIALFCGEKINLWQAEEAPLAIEQGNFELDISAINMKILGVYETQEVIAIFKNEYTQDQSPLSRRLLAPSLEHHHHHH | soluble
7 | MAHHHHHHMSAPKEGNRGESKEKFWLYAFRDHLANLRAFSNCIETADVNGVGDYQLLVADGSKRIKVYAGTSLQRELPLFGVPSAITSFFMDDADAFGKPVVAVATGPYIFMYRSNKPLYRFMVPPVPLNPQESAIWQDLATEALTVEEAVKQLESLLDSGVETSSRTLELLLETPEERGEFVSRLRSVPLIQMDVVCCLTSIPLNSLDEGGRSVLVIGTEAGFLYVLKHNAAEVALKVVLPRTPVFLIAAGCFEVDYRMVVACRDGRVYSIKQGNLQNAVIQPDAQPCAIARYNNLIAVATTANTLAYYNLKGKKQQSVFLPCSISGLSTINDTVTGEARGLVVALSNGEIRVYVGTQLHHVSLAYGTVTAMKFGRYGRSDGALVLVLQNGSLVVELLHRGVNLSCSKTVETGPPPQQDIPIPIPHLSSVFATQSSRERKHGVEMYQLFQYDLSQLRLTTAKAYLDMIANGSVPSELGNVTQENEGVAEPSLRLNAVVQGLGPVFKVKVQLQNVGEAPLHAVRVVFCLSEDNVYCMPQQIFLIPTLLPSVPLSCAAFVTTSEGEAKGNAILVVATGPKSRTPLARTLVDLPEVEAMAEV | not soluble
8 | MTNLTLDVNIIDFPSIPVAMLPHRCSPELLNYSVAKFIMWRKETGLSPVNQSQTFGVAWDAPATTAPEAFRFDICGSVSEPIPDNRYGVSNGELTGGRYAVARHVGELDDISHTIWGIIRHWLPASGEKMRKAPILFHYTNLAEGVTEQRLETDVYVPLA | not soluble
9 | MSLKYFEFTFHTSPCTETVNDVLAAVLGEAGFESFVESEGGLTAYIQQALCDENTIKNAITEFPLPDTEITYTYVEAEDKDWNEEWEKNFFQPIVIDNRCVIHSTFHKDVPQATYDIVINPQMAFGTGHHETTSLIIGELLDNELKDKSLLDMGCGTSILAILARMRGARPCIAIDIDEWCVRNSIENIELNHVDDIAVSQGDASSLVGKGPFDIIIANINRNILLNDMKQYVACMHPGSELYMSGFYVDDIPFIRREAEKNGLTFVHHKEKNRWAAVKFTYEGHHHHHH | soluble
10 | SESWRSFFKEALQGVGDMGRAYWDIMISNHQNSNRYLYARGNYDAAQRGPGGVWAAKLISRSRVYLQGLIDYYLFGNSSTVLEDSKSNEKAEEWGRSGKDPDRFRPDGLPKKY | soluble
11 | MAHHHHHHMMNMFYRRDFPVSFRYVNDHSKFIGAGSGRGNRKRGMAPNNYTEYLRIMANEANGTGQDTSRVLFIDSEVNYRFTPVQTIVLDAYEPLTRRQQRRLVQQQYSNPFGDVSSRNARRYGAAAARARKMTVRHRAVVSAQHLQDAVDMQQKYTDFLIAEQEGVQLPPEMRNGVQDGHGGDLCHFSKRHPQRSAPSSSSPPHPQQGGSTRGRVSGPLSTPGPSSLADTESDKTPPDGNKDIKEEQQQLSMSCALAVNLEDYSLVALAEMIAEMSASETSVADYIKTEPLIEKVEVPFHGKANYLAPENCDNIDLLNWDEIQVLEKAHGTGVPEMVEETEDHKDFFR | not soluble
12 | MGSDKIHHHHHHMILGIDVGGTSVKFGLVTPEGEIQNATRFMTADWVNGIGFVESMKLEIGNFLKQYPIVKGVGIGWPGLVSLDRTKVILLPNIPSVVNVPIVEILRSEFPHIHFKIENDAKCAALGEYYFGENKRMQTFILLALGTGVGSGVMMNGKLFIGGRGNGTEVGHMLTTRGKSLENQVGINHLIAYTHEQLALDVAKKSSLHTIAELSPKVIADHAAQGDALALAVWADIGTIIGESLVNIVRVMDLNNILLGGGISGAFDYFVPNLKKAMLEHLPTYYTDDMYIGKATLENDAGLLGAAGLIMEAI | not soluble
13 | MSDVPDDANAGCPGTGSAGAGKASGCAGCPNQGSCATGQGPPPDADVPKIQDRFSRIKHKILILSGKGGVGKSTLTSNLARALASDPSKQVAILDVDICGPSQPRMMGVEDEEVHNSADGWTPVGIQPNLTLMSIAFLLGDKNDAVIWRGARKNGMIKQFLKDVDWGEVDYLLIDTPPGTSDEHISLVQFLLQAGPLDGALIVSTPQEVSLLDVRKEVSFCVKTKVPILGVVENMARFVCPNCAHTTLLFPTSTGGAEQMCKDSNLELLAQLPLEPALAKALDNGEDFFETNPDSTLAKSFLDLAEKVKAKLV | not soluble
14 | SLEPIGRSLQGVTGRPDFQKRLEQMKEKVMKDQDVQAFLKENEEVIDQKMIEKSLNKLYEYIEQSKNCSYCSEDENCNNLLEGYHPKLVVNGRSIDIEYYECPVKRKLDQQKKQQSLMKSMYIQQDLLGATFQQVDISDPSRLAMFQHVTDFLKSYNETGKGKGLYLYGKFGVGKTFMLAAIANELAEKEYSSMIVYVPEFVRELKNSLQDQTLEEKLNMVKTTPVLMLDDIGAESMTSWVRDEVIGTVLQHRMSQQLPTFFSSNFSPDELKHHFTYSQRGEKEEVKAARLMERILYLAAPIRLDGENRRHP | soluble
15 | MKVFTEKIPNIPWEERPEGYTGPVWRYSKNPIIGRNPVPKGARVFNSAVVPYNGEFVGVFRIDHKNTRPFLHFGRSKDGINWEIEPEEIQWVDVNGEPFQPSYAYDPRVVKIEDTYYITFCTDDHGPTIGVGMTKDFKTFVRLPNAYVPFNRNGVLFPRKINGKYVMLNRPSDNGHTPFGDIFLSESPDMIHWGNHRFVLGRSSYNWWENLKIGAGPYPIETSEGWLLIYHGVTLTCNGYVYSFGAALLDLDDPSKVLYRSRYYLLTPEEEYETVGFVPNVVFPCAALCDADTGRVAIYYGAADTHVALAFGYIDEIVDFVKRNSM | not soluble
16 | MGSDKIHHHHHHMTTTIQALEKHLQVRLLNRTTRKISLTPDGAVYYDRTARILADVADIESSFHDAERGPRGQLRIDVPVSIGRLILIPRLRDFHARYPDIDLVIGLNDRPVDLVGEAVDCAIRVGELKDSSLIARRIGTFQCATAASPIYLEKYGEPTSIEDLQKNHKAIHFFSSRTGRNFDWDFVVDDLIKSVSVRGRVSVNDGDAYIDLALQGFGIIQGPRYMLTNHLESGLLKEVLPQWTPAPMPISAVYLQNRHLSLKVKVFVDWVAELFAGCPLLGGTALPFDQKCEFACDKETGHEYTIRTLVEQHNIAEAYTLKT | not soluble
17 | MKVTNLFKDKVDAISAHQSEFMNWMSPTLRDYWSDFLGKAQNSFLFSNVRDHNQPAVNEEVAPQPAPIVLQPEAQKLYDELSGKIGEVIHTGDWVHVSQERINQFGAVTEDMQWIHTDPERASVESPFKTTIAHGFLTLALLPKLTDSVDADKPLFPTAKLVVNLGLNQVRFPYPVKAGNNVRAVSTLTKVTPIKKGLEIEREIKVEIEGVRRPGAVVVSVIQLHFLEHHHHHH | soluble
18 | MDGHYEVSKSILINRSSPDVFAYVSHIKNQEHYSVWAKRDTNSIKTYRGRDGVVGFTATWKSEMKKVGQGEQEIKKIIPNKRIDLELRFFKPFEATDHVFMETIAQDEEETKVVWGFDGEMAYPVNFFLLFVDMEDVLGGDLETGLVNLKTILESKLEHHHHHH | soluble
19 | MSLRKNLEEEQRLIDAKKLSLVIDLDKTLIDTTEVRNRAEVDAIKKLDPAATEDDFFEFNMNQNLLIRYRPHVRQFLASIAPYFDMQIYTLASPAYAHAILSKIDPEDKLFKNRIFSRTAEDFAMIKEAMRNQTDIVNKKNIKKIFPYSDKLVLVLDDSPEVWFCDNNKLFKGLVQIKRYSYFTRQGPNSPPTVNPDYVNDDILIQMRSVLIDVHDMFYKNYDPEESHVIMTLHQRKAQVFEGKTFYFSGLSEDDTMTFTRLAEEFGALVVDSFTPYTTHIIVGEGGTDDQIQKAMEYRGVYIIYLKWLFECFIQYARIEESLYSIQGIPCPTEGHHHHHH | soluble
20 | MKKIVTATIATAGLATIAFAGHDAQAAEQNNNGYNSNDAQSYSYTYTIDAQGNYHYTWTGNWNPSQLTQNNTYYYNNYNTYSYNNASYNNYYNHSYQYNNYTNNSQTATNNYYTGGSGASYSTTSNNVHVTTTAAPSSNGRSISNGYASGSNLYTSGQCTYYVFDRVGGKIGSTWGNASNWANAAASSGYTVNNTPKVGAIMQTTQGYYGHVAYVEGVNSNGSVRVSEMNYGHGAGVVTSRTISANQAGSYNFIHLEHHHHHH | not soluble
21 | MRTLAIDIGGTKIALAIVEEGTIIQRYQIATPVVQDVTKFVQAILEKVTEWLPSIDYVGVSTTGYVTPEGITSINPETLNFPVPFPLAQTLEQLTNKPVSILNDAQAAAWFEFVQLKNPSLNMAFITVSTGVGGGIIIDGKLHKGNSGLAGHIGHMSVAIEGPLCGCGQRGCVESMASGNAIQKESEATFTETMSNVELFKQAAFNPKAEAIINRSVQAVATLCCNLKACLDLDIIVLGGGIGLAEGYLERLNKAIQSRPSVFHIPVTPAHGDYDACLLGAAFQFKE | not soluble
